Reference: patent US20230212587A1, “Mutant Hydroxyphenylpyruvate Dioxygenase Polypeptide, Encoding Gene Thereof and Use Therefor” (Beijing Dabeinong Biotechnology Co., Ltd., priority 2019, published 2023)
Numbering of substitutions follows the chain as printed. Numbers in names are those of the source.

B1: SiHPPD-02: native Setaria italica HPPD, SEQ ID NO: 57 (protein, listed as Setaria italica)
chain: MPPTPTPAAAAPGAAAAPAAGDQAAFRLVGHRGFVRVNPRSDRFHTLSFHHVELWCADATSAAGRFSFGLGAPLAARSDLSTGNSAHASLLLRSGSLAFLFTAPYAHGVDAATASLPSFSAPAARSFAADHGLAVRAIGLRVADAEDAFRASVAAGARPAFKPVELGLGFRLAEVELYGDVVLRYVSYPDAEDAPFLPGFENVNNPGALNYGLRRFDHIVGNVPELAPVAAYVAGFTGFHEFAEFTAEDVGTAESGLNSMVLANNSETVLIPLNEPVHGTKRRSQIQTFLDHNGGPGVQHIALASDDVLRTLREMQARSAMGGFEFMAAPPPDYYEGVRRRAGDVLSEAQIKECQELGVLVDRDDQGVLLQIFTKPVGDRQTLFLEIIQRIGCMEKDEQGQEYQKGGCGGFGKGNFSQLFKSIEDYEKSLESKQAAAVQGS
modifications: SiHPPD Amino Acid Sequence
B2: SiHPPDm-F372A-02: Setaria italica HPPD mutant F372A, SEQ ID NO: 60 (protein)
chain: B1 chain with F373A
modifications: SiHPPDm-F372A Amino Acid Sequence
B3: SbHPPD-02: native Sorghum bicolor HPPD, SEQ ID NO: 63 (protein)
chain: MPPTPTTAAATGAAVAAASAEQAAFRLVGHRNFVRVNPRSDRFHTLAFHHVELWCADAASAAGRFSFGLGAPLAARSDLSTGNTAHASLLLRSGALAFLFTAPYAHGADAATASLPSFSAAEARRFAADHGLAVRAVALRVADAEDAFRASVAAGARPAFEPVELGLGFRLAEVELYGDVVLRYVSYPDDADASFLPGFVGVTSPGAADYGLRRFDHIVGNVPELAPAAAYFAGFTGFHEFAEFTAEDVGTTESGLNSMVLANNAENVLLPLNEPVHGTKRRSQIQTYLDHHGGPGVQHMALASDDVLRTLREMQARSAMGGFEFMAPPAPEYYDGVRRRAGDVLTEAQIKECQELGVLVDRDDQGVLLQIFTKPVGDRPTLFLEIIQRIGCMEKDEKGQEYQKGGCGGFGKGNFSQLFKSIEDYEKSLEAKQAAAAQGS
modifications: Sorghum bicolor; SbHPPD Amino Acid Sequence
B4: HvHPPD-02: native Hordeum vulgare HPPD, SEQ ID NO: 51 (protein)
chain: MPPTPTTPAATGAAAAVTPEHARPHRMVRFNPRSDRFHTLSFHHVEFWCADAASAAGRFAFALGAPLAARSDLSTGNSAHASQLLRSGSLAFLFTAPYANGCDAATASLPSFSADAARRFSADHGIAVRSVALRVADAAEAFRASRRRGARPAFAPVDLGRGFAFAEVELYGDVVLRFVSHPDGTDVPFLPGFEGVTNPDAVDYGLTRFDHVVGNVPELAPAAAYIAGFTGFHEFAEFTAEDVGTTESGLNSVVLANNSEGVLLPLNEPVHGTKRRSQIQTFLEHHGGPGVQHIAVASSDVLRTLRKMRARSAMGGFDFLPPPLPKYYEGVRRLAGDVLSEAQIKECQELGVLVDRDDQGVLLQIFTKPVGDRPTLFLEMIQRIGCMEKDERGEEYQKGGCGGFGKGNFSELFKSIEDYEKSLEAKQSAAVQGS
modifications: Hordeum vulgare; HvHPPD Amino Acid Sequence
B5: HvHPPDm-F372A-02: Hordeum vulgare HPPD mutant F372A, SEQ ID NO: 54 (protein)
chain: B4 chain with F366A
modifications: HvHPPDm-F372A Amino Acid Sequence

system: Arabidopsis thaliana T1 plants; assay: Topramezone tolerance of transgenic Arabidopsis thaliana T1 plants (pesticide damage grade by bleached leaf area, score, resistance evaluation); assay type: in vivo; conditions: HPPDs from different species; number of plants (of 16) in this grade; topramezone 25 g ai/ha (1x), 7 DAT
Outline: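 Herbicide tolerance was judged per plant on a bleaching scale (grade 0 no bleaching to grade 3 fully bleached) 7 DAT. Topramezone doses were 0, 25, 50 and 100 g ai/ha on 18-day-old T1 and wild-type plants.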

Molecule | Classification and statistics of pesticide damage grade Grade 0 | Classification and statistics of pesticide damage grade Grade 1 | Classification and statistics of pesticide damage grade Grade 2 | Classification and statistics of pesticide damage grade Grade 3
B1 | 0 | 0 | 0 | 16
B2 | 13 | 2 | 1 | 0
B3 | 0 | 0 | 0 | 16
B4 | 0 | 0 | 0 | 16
B5 | 15 | 1 | 0 | 0

same assay, conditions: HPPDs from different species; number of plants (of 16) in this grade; topramezone 100 g ai/ha (4x), 7 DAT

Molecule | Classification and statistics of pesticide damage grade Grade 0 | Classification and statistics of pesticide damage grade Grade 1 | Classification and statistics of pesticide damage grade Grade 2 | Classification and statistics of pesticide damage grade Grade 3
B1 | 0 | 0 | 0 | 16
B2 | 6 | 8 | 2 | 0
B3 | 0 | 0 | 0 | 16
B4 | 0 | 0 | 0 | 16
B5 | 8 | 8 | 0 | 0

same assay, conditions: HPPDs from different species; score for pesticide damage 0-100; topramezone 25 g ai/ha (1x), 7 DAT

Molecule | Scores
B1 | 100
B2 | 8
B3 | 100
B4 | 100
B5 | 2

same assay, conditions: HPPDs from different species; score for pesticide damage 0-100; topramezone 100 g ai/ha (4x), 7 DAT

Molecule | Scores
B1 | 100
B2 | 25
B3 | 100
B4 | 100
B5 | 17

same assay, conditions: HPPDs from different species; topramezone 25 g ai/ha (1x), 7 DAT

Molecule | Resistance evaluation
B1 | non-resistant (non-resistant plants (scores 68-100))
B2 | highly resistant (highly resistant plants (scores 0-15))
B3 | non-resistant (non-resistant plants (scores 68-100))
B4 | non-resistant (non-resistant plants (scores 68-100))
B5 | highly resistant (highly resistant plants (scores 0-15))

same assay, conditions: HPPDs from different species; topramezone 100 g ai/ha (4x), 7 DAT

Molecule | Resistance evaluation
B1 | non-resistant (non-resistant plants (scores 68-100))
B2 | moderately resistant (moderately resistant plants (scores 16-33))
B3 | non-resistant (non-resistant plants (scores 68-100))
B4 | non-resistant (non-resistant plants (scores 68-100))
B5 | moderately resistant (moderately resistant plants (scores 16-33))
